Experimental data taken from patent publication US20180355060A1 (published 2018).

Legend:
[1] = target: T1, human transglutaminase type 2 (TG2) (human, UniProt P21980 1-687); test: cell-based or functional assay
T1 sequence: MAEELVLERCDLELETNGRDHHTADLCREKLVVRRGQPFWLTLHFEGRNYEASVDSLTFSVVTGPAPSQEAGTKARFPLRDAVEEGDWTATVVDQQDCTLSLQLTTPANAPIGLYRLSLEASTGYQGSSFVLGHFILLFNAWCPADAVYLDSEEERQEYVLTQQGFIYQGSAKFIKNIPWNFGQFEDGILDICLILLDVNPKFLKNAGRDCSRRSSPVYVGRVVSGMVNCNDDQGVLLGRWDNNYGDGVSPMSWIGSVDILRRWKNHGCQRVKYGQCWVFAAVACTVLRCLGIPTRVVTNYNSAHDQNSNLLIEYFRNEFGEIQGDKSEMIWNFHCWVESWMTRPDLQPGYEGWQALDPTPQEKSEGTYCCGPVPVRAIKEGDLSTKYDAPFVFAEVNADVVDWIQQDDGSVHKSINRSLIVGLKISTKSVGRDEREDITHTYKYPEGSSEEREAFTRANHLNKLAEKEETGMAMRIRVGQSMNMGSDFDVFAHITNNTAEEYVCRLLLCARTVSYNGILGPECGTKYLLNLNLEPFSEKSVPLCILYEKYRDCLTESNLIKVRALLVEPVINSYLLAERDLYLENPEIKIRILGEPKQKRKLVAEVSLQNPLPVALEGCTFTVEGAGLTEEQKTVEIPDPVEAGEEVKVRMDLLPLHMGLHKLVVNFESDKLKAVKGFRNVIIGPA

[2] = target: T2, mouse TG2 (mouse, UniProt P21981 1-686); test: western blot and ELISA
T2 sequence: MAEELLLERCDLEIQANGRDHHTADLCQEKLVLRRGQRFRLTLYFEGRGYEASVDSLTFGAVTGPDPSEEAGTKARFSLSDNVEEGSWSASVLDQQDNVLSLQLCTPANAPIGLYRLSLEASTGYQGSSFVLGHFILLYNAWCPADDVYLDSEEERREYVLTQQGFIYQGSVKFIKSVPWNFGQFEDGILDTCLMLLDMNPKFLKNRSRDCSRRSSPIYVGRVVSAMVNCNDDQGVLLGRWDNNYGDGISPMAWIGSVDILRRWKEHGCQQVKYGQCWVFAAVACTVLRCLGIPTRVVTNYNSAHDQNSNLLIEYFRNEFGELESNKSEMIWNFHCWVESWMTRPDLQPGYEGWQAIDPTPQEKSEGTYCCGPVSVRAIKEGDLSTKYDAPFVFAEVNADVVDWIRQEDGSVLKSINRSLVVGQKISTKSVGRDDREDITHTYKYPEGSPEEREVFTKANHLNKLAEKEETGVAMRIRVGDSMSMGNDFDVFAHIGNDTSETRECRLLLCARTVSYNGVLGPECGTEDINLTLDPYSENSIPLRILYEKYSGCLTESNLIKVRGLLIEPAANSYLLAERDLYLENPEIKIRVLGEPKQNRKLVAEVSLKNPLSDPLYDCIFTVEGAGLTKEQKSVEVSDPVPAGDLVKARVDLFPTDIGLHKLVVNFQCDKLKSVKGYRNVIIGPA

[3] = target: T3, rat TG2 (rat, UniProt Q9WVJ6 1-686); test: western blot and ELISA
T3 sequence: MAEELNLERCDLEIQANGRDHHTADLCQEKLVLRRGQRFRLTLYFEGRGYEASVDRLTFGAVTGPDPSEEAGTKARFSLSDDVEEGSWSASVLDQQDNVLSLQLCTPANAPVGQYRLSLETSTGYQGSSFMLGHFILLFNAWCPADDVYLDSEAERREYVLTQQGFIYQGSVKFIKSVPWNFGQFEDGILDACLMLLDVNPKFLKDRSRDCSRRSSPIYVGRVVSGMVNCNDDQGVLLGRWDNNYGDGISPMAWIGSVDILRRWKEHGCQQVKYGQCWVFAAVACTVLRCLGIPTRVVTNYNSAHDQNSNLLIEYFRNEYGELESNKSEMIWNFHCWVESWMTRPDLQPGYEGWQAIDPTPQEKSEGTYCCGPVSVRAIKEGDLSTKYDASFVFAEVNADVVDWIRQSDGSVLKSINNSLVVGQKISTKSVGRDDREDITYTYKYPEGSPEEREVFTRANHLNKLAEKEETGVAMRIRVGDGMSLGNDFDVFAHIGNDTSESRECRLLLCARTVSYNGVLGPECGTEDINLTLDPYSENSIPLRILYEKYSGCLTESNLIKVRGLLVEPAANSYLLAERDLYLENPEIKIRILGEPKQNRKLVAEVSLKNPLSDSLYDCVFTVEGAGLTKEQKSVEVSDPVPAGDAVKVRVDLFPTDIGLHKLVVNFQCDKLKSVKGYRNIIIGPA

B1: AB1 murine monoclonal anti-TG2 antibody (antibody, V domains shown)
VH: EVQLVESGGGLVKPGGSLKLSCAASGFTLSSSAMSWVRQTPDRRLEWVATISVGGGKTYYPDSVKGRFTISRDNAKNTLYLQMNSLRSEDTAMYYCAKLISLYWGQGTTLTVSS
VL: DIKMTQSPSSMYASLGERVTITCKASQDINSYLTWFQQKPGKSPKTLIYRTNRLFDGVPSRFSGSGSGQDFFLTISSLEYEDMGIYYCLQYDDFPYTFGGGTKLEIK
notes: they differ only in the first residues; also called AB1 IgG; mAB003
**Q.** For B1, which “IC50, 3H-putrescine incorporation TG activity assay” value [1] is on record?
**A.** 1.1e-05 mg/ml of IgG (amount required to inhibit 1 ng of TG2)

**Q.** Does B1 bind [2]?
**A.** binds

**Q.** Does B1 bind [3]?
**A.** binds
